This is an account of results in US20210071139A1.

“And” between values parts separate entries of the source, which are not always exact repeats. Identical values can stand only once.

Chain of Tmem160 (Q9D938 97-188): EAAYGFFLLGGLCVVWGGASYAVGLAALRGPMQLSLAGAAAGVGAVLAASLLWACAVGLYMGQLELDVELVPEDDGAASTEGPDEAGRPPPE
Chain of Utp11l (Q9CZJ1 whole entry): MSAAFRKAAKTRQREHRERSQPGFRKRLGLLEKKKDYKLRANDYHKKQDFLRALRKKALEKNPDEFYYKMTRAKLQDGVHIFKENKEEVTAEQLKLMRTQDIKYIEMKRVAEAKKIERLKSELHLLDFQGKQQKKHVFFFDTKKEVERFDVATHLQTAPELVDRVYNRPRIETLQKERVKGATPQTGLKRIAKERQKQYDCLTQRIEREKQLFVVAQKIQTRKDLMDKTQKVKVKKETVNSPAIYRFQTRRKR

The target in one test is TOX (UniProt Q66JW3). In words: anti-TOX IP from EL4 nuclear extract, LC-MS/MS, MiST analysis.
Chain of TOX (Q66JW3 whole entry): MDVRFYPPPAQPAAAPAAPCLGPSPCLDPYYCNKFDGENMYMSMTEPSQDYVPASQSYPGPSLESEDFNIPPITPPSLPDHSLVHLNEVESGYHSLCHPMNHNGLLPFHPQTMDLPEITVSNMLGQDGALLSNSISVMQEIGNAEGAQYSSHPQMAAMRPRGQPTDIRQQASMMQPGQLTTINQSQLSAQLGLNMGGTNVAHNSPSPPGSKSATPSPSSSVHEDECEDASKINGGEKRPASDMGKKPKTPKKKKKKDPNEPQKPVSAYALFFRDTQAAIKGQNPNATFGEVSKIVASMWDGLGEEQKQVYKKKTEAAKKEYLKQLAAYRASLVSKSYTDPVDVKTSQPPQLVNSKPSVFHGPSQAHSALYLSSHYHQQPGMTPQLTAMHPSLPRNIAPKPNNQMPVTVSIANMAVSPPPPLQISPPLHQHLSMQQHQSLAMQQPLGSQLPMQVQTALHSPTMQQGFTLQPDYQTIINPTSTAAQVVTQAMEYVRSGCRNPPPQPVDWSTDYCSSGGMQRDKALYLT
Substance Zw10 (from UniProt O54692 2-779) yielded an Abundance of 2.83e-06, a MiST Score of 0.767, a Reproducibility of 0.582 and a Specificity of 0.857.
For Hp1bp3 (from UniProt Q3TEA8 2-554), in that order: 1.65e-05, 0.766, 0.779 and 0.766.

The target of the next test is TOX (UniProt Q66JW3). Kind of test: TOX co-IP from EL4 nuclear extract, LC-MS/MS, MiST.
Lsg1 (from UniProt Q3UM18 1-644): the Abundance is 2.9e-06, the MiST Score was found to be 0.837, the Reproducibility worked out at 0.886 and the Specificity was determined as 0.822.
In the same order, the values of Cnot1 (from UniProt Q6ZQ08 1-2375) are 5.57e-07, 0.85, 0.931 and 0.821.
For Nop14 (from UniProt Q8R3N1 1-860), in that order: 1.27e-06, 0.84, 0.501 and 1.
In the same order, the values of Mrpl3 (from UniProt Q99N95 41-348) are 7.04e-05, 0.857, 0.555 and 1.
As for Nob1 (from UniProt Q8BW10 1-403), the Abundance worked out at 2.4e-05, the MiST Score came to 0.84, the Reproducibility was determined as 0.955 and the Specificity was found to be 0.796.
In the same order, the values of Cdc16 (from UniProt Q8R349 1-620) are 4.84e-06, 0.847, 0.524 and 1.
In the same order, the values of Sorbs1 (from UniProt Q62417 1-1290) are 1.52e-05, 0.829, 0.997 and 0.76.
On to Csrp1 (from UniProt P97315 1-193), for which the Abundance was determined as 5.52e-05, the MiST Score stood at 0.828, the Reproducibility amounted to 0.966 and the Specificity is 0.773.
In the same order, the values of Mark2 (from UniProt Q05512 1-776) are 2.81e-06, 0.842, 0.891 and 0.826.
For Dhx29 (from UniProt Q6PGC1 1-1365), in that order: 5.88e-07, 0.847, 0.928 and 0.818.
In the same order, the values of Skap2 (from UniProt Q3UND0 1-358) are 4.76e-06, 0.845, 0.516 and 1.
In the case of Atxn2 (from UniProt O70305 1-1285), the Abundance was 2.51e-06, the MiST Score came to 0.831, the Reproducibility amounted to 0.831 and the Specificity was 0.838.
Take Sugp1 (from UniProt Q8CH02 1-643): the Abundance was found to be 7.71e-06, the MiST Score worked out at 0.832, the Reproducibility is 0.906 and the Specificity stood at 0.807.
Regarding Dnajb6 (from UniProt O54946 1-365), the Abundance was 2.48e-05, the MiST Score was found to be 0.837, the Reproducibility is 0.944 and the Specificity was 0.796.
For Copg1 (from UniProt Q9QZE5 1-874), in that order: 3.36e-06, 0.844, 0.514 and 1.
Take Mcm5 (from UniProt P49718 2-734): the Abundance is 4.18e-06, the MiST Score stood at 0.85, the Reproducibility came out at 0.757 and the Specificity was 0.9.
As to Zmym4 (from UniProt A2A791 2-1549), the Abundance came to 1.92e-06, the MiST Score was 0.841, the Reproducibility was 0.503 and the Specificity amounted to 1.
In the same order, the values of Wdr82 (from UniProt Q8BFQ4 1-313) are 0.00013, 0.846, 0.951 and 0.807.
In turn, Cpt1a (from UniProt P97742 2-773) had an Abundance of 7.71e-07, a MiST Score of 0.847, a Reproducibility of 0.522 and a Specificity of 1.
The substance Trrap (from UniProt Q80YV3 1-2565) showed an Abundance of 9.36e-08, a MiST Score of 0.847, a Reproducibility of 0.524 and a Specificity of 1.
In the same order, the values of Ddx23 are 7.9e-06, 0.836, 0.837 and 0.843.
Substance Hsd17b10 (from UniProt O08756 2-261) came in with an Abundance of 1.27e-05, a MiST Score of 0.857, a Reproducibility of 0.557 and a Specificity of 1.
In the same order, the values of Rrbp1 (from UniProt Q99PL5 1-1605) are 1.36e-06, 0.834, 0.675 and 0.913.
For Gnl2 (from UniProt Q99LH1 1-728), in that order: 7.98e-06, 0.843, 0.894 and 0.827.
For Zcchc8 (from UniProt Q9CYA6 2-709), in that order: 2.87e-06, 0.834, 0.483 and 1.
As to Orc1 (from UniProt Q9Z1N2 1-840), the Abundance was 1.58e-06, the MiST Score amounted to 0.843, the Reproducibility is 0.866 and the Specificity worked out at 0.839.
For Nop2 (from UniProt Q922K7 1-793), the Abundance was determined as 8.3e-05, the MiST Score was 0.844, the Reproducibility is 0.981 and the Specificity was 0.789.
For Ccnk (from UniProt O88874 1-554), in that order: 1.18e-05, 0.846, 0.975 and 0.795.
For Utp11l, in that order: 4.22e-05, 0.856, 0.553 and 1.
For Tmem160, in that order: 3.49e-05, 0.846, 0.94 and 0.812.
Samd1 (from UniProt D3YXK1 1-519) returned an Abundance of 2.47e-06, a MiST Score of 0.829, a Reproducibility of 0.886 and a Specificity of 0.811.
For Rbm28 (from UniProt Q8CGC6 2-750), in that order: 8.77e-06, 0.855, 0.958 and 0.815.
Substance Orc3 (from UniProt Q9JK30 1-715) returned an Abundance of 7.41e-07, a MiST Score of 0.848, a Reproducibility of 0.528 and a Specificity of 1.
In the same order, the values of Dnajb11 (from UniProt Q99KV1 23-358) are 2.91e-05, 0.839, 0.783 and 0.872.
For Ap3m1 (from UniProt Q9JKC8 1-418), in that order: 1.64e-05, 0.829, 0.982 and 0.767.
For Nsf (from UniProt P46460 1-744), in that order: 2.87e-06, 0.838, 0.808 and 0.859.
Tmem214 (from UniProt Q8BM55 2-687) came in with an Abundance of 1.26e-06, a MiST Score of 0.85, a Reproducibility of 0.532 and a Specificity of 1.
For “Gm20517; Med20 (from UniProt Q9R0X0 1-212)”, in that order: 2.2e-05, 0.831, 0.472 and 1.
As to Sptbn1 (from UniProt Q62261 2-2363), the Abundance was 1.19e-05 and 1.09e-05; the MiST Score was determined as 0.84; the Reproducibility turned out to be 0.996; the Specificity was 0.777.
Take Arhgef2 (from UniProt Q60875 1-985): the Abundance was found to be 1.33e-05, the MiST Score amounted to 0.847, the Reproducibility came to 0.943 and the Specificity stood at 0.811.

The target of the next test is TOX (UniProt Q66JW3). In words: anti-TOX IP from EL4 nuclear extract, LC-MS/MS, MiST vs IgG control.
Turning to “Dld (from UniProt O08749 36-509) (enzyme)”, the Abundance worked out at 1.87e-05, the MiST Score came out at 0.76, the Reproducibility turned out to be 0.898 and the Specificity is 0.704.
For Actr5 (from UniProt Q80US4 1-605), in that order: 9e-06, 0.753, 0.979 and 0.658.
For Gatad2b (from UniProt Q8VHR5 1-594), in that order: 1.65e-05, 0.752, 0.863 and 0.708.
In the same order, the values of Gatad2a (from UniProt Q8CHY6 1-629) are 1.98e-05, 0.76, 0.908 and 0.7.
“Soat1 (from UniProt Q61263 1-540) (enzyme)”: the Abundance is 5.75e-06, the MiST Score was determined as 0.762, the Reproducibility came to 0.249 and the Specificity came out at 1.
